We go through one molecule from patent publication US20240271091A1 (University of Pennsylvania, published 2024).

In this test the target is BSA (UniProt P02769 25-607). In words: UV photocrosslinking of hIgG2 in the presence of BSA.

No end group written: not given here.

B1: photoreactive Protein G (pAbBD), BPA position not stated (designed binder)
chain: MTFKLIINGKTLKGEITIEAVDAAEAEKIFKQYANDYGIDGEWTYDDATKTFTVTE
modifications: also: contains benzoylphenylalanine (BPA), position not given here
As for B1, the binding result is given as “no binding (tested: 1% BSA solution (200-times molar excess))”.
